B1: pH-response regulator protein palA/RIM20 (Saccharomyces cerevisiae), Q12033 (parent)
chain: MSELLAIPLKRTLEVDFATELSKLIDTTSFQTASFFQSDILKVVDARNNAIAPDISIDGLSALKEYYVILLQLEKKFPNNQIEFTWFQTLSQKSRGTSQYSLQWEKLTIIYNIGCMYSLLALNSNNDAAESLKTSCLYFQNAAGCFKHVLDHQKNLETIPVVDDATLNALTSLMLAQAQECFWFKAVQDKHKDSLIAKLSQQIVDFYCEAINDAQRGKLIRSDWINHLKAKKAYFSAVTYYRIALSFNEKKQFGNVVKALQMGLQFINESTLSSQAKFKTVVESSLKEAQRDNEFIYLQEVPSELPSIKPALMVKPSSSATLLPSIKKDETLFKDLIPIEVMEYCTAYNERQDEYVEQRVTNPLASLNKLLKESLTTFQIPQGLTKVSEAELSHYQASLNNLLINNKNVQVQLDNIEQILNEEAFTDNQLRLKHGTLNWTLPESSTTNTAYYEKLKKLRGYLDEGSAIDKQTNELFQSIDKNLIGSEIRLPESNDPLTNKIKMIIQERNDYIDRTRRKSSEYRILPKIITSYKKNGTVDFEPIFIGHLKYFDEDLRYVNSTKEENIKLIEEVNLSKKNNPGRSGIEPKKMVRIDPRELYIEDLRYSFKLLDEVKENLSAGTAFYENLITSTSNLYNEVQEYDTARRAEKARLDKSLTFEDQ

Variants of: B1
Settings: with pacc_yeast RIM101, P33400
Chain of pacc_yeast RIM101, P33400 (P33400 whole entry): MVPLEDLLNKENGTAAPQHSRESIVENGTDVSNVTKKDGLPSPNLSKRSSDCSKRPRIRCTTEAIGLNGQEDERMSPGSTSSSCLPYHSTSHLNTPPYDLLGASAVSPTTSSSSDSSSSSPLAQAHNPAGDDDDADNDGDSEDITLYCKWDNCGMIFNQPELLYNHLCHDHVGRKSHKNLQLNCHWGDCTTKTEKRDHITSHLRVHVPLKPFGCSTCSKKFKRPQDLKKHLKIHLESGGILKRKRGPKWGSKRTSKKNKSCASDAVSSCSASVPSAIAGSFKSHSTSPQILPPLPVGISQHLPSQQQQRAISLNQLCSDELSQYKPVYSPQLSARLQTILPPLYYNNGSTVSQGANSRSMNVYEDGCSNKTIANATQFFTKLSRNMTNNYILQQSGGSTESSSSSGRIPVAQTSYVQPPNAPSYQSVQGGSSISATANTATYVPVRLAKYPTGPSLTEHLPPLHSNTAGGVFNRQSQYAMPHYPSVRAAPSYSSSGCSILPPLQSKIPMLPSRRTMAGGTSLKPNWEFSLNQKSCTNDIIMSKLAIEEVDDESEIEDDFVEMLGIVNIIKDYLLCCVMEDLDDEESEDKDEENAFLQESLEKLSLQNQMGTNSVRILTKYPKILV
Q177A;Q179A;E180A was tested, and the “effect of a mutation on the interaction” value was “disrupting interaction”. With F623A;Y624A the “effect of a mutation on the interaction” value was “disrupting interaction”.
